In patent US20020155503:

Columns and labels:
[1] = biological target: T1, Lys-Lys-Lys-Lys-Ala-Asp-Glu-Glu-Asp-Tyr-Phe-Ile-Pro-Pro-Ala
T1 chain: KKKKADEEDYFIPPA

[2] = biological target: Serine-tyrosine-phenylalanine-histamine-glutamine

B1: recombinant form of the human CSK enzyme (protein)
chain: MSAIQAAWPSGTECIAKYNFHGTAEQDLPFCKGDVLTIVAVTKDPNWYKAKNKVGREGIIPANYVQKREGVKAGTKLSLMPWFHGKITREQAERLLYPPETGLFLVRESTNYPGDYTLCVSCDGKVEHYRIMYHASKLSIDEEVYFENLMQLVEHYTSDADGLCTRLIKPKVMEGTVAAQDEFYRSGWALNMKELKLLQTIGKGEFGDVMLGDYRGNKVAVKCIKNDATAQAFLAEASVMTQLRHSNLVQLLGVIVEEKGGLYIVTEYMAKGSLVDYLRSRGRSVLGGDCLLKFSLDVCEAMEYLEGNNFVHRDLAARNVLVSEDNVAKVSDFGLTKEASSTQDTGKLPVKWTAPEALREKKFSTKSDVWSFGILLWEIYSFGRVPYPRIPLKDVVPRVEKGYKMDAPDGCPPAVYEVMKNCWHLDAAMRPSFLQLREQLEHIKTHELHL
B1 was tested, and the “phosphorylation of library peptide, anti-phosphotyrosine ELISA (absorbance at 450 nm); preferred substrate of the sub-set” value (shortened to “phosphorylation … of the sub-set”) (Asp-Tyr-His-Leu-Phe) was “Library Sub-Set 4 Asp-Tyr-His-Leu-Phe [SEQ ID No. 19]”, the “phosphorylation … of the sub-set” value (Asp-Glu-Glu-Tyr-Phe) was “Library Sub-Set 2 Asp-Glu-Glu-Tyr-Phe [SEQ ID No. 17]” and the “phosphorylation … of the sub-set” value (Asp-Glu-Glu-Glu-Tyr) was “Library Sub-Set 1 Asp-Glu-Glu-Glu-Tyr [SEQ ID No. 16]”. The “phosphorylation … of the sub-set” value (Tyr-Pro-Ile-Glu-Val) was “Library Sub-Set 5 Tyr-Pro-Ile-Glu-Val [SEQ ID No. 20]” and the “phosphorylation … of the sub-set” value (Asp-Glu-Tyr-His-Asn) was “Library Sub-Set 3 Asp-Glu-Tyr-His-Asn [SEQ ID No. 18]”.

B2: catalytic domain of human ZAP-70 (amino acid 306-615), recombinant, from baculovirus-infected Sf9 cells (protein)
chain: RPMPMDTSVYESPYSDPEELKDKKLFLKRDNLLIADIELGCGNFGSVRQGVYRMRKKQIDVAIKVLKQGTEKADTEEMMREAQIMHQLDNPYIVRLIGVCQAEALMLVMEMAGGGPLHKFLVGKREEIPVSNVAELLHQVSMGMKYLEEKNFVHRDLAARNVLLVNRHYAKISDFGLSKALGADDSYYTARSAGKWPLKWYAPECINFRKFSSRSDVWSYGVTMWEALSYGQKPYKKMKGPEVMAFIEQGKRMECPPECPPELYALMSDCWIYKWEDRPDFLTVEQRMRACYYSLASKVEGPPGSTQKAE
For B2, the “protein kinase activity against the peptide substrate (column fractions)” value [1] was “ZAP-70 fractions identified by protein kinase activity against the peptide substrate Lys-Lys-Lys-Lys-Ala-Asp-Glu-Glu-Asp-Tyr-Phe-Ile-Pro-Pro-Ala” and the “Km (33P-γ-ATP phosphorylation of the biotin peptide, streptavidin filter plate capture)” value (Biotin-εAHA-DEEDYFE(Nle)) was 15.79 µM.

B3: recombinant form of the Abelson murine leukaemia virus protein tyrosine kinase v-Abl (protein)
chain: YITPVNSLEKHSWYHGPVSRNAAEYLLSSGINGSFLVRESESSPGQRSISLRYEGRVYHYRINTASDGKLYVSSESRFNTLAELVHHHSTVADGLITTLHYPAPKRNKPTIYGVSPNYDKWEMERTDITMKHKLGGGQYGEVYEGVWKKYSLTVAVKTLKEDTMEVEEFLKEAAVMKEIKHPNLVQLLGVCTREPPFYIITEFMTYGNLLDYLRECNRQEVSAVVLLYMATQISSAMEYLEKKNFIHRDLAARNCLVGENHLVKVADFGLSRLMTGDTYTAHAGAKFPIKWTAPESLAYNKFSIKSDVWAFGVLLWEIATYGMSPYPGIDLSQVYELLEKDYRMERPEGCPEKVYELMRACWQWNPSDRPSFAEIHQAFETMFQESSISDEVEKELGKRG
In the case of B3, the “phosphorylation of library peptide, anti-phosphotyrosine ELISA (absorbance at 450 nm); preferred substrate of Library Sub-Set 4” value [2] is reported as “The active site substrate recognition substrate for this enzyme for this Sub-Set was Serine-tyrosine-phenylalanine-histamine-glutamine [SEQ ID No. 21]”.
